According to the supplement of paper PMC9170038:

Experiments:
[1] = system: MS2 coat protein; experiment: apparent KD of MS2 coat protein; designed switch direction (-1 OFF switch, 1 ON switch): 1; higher = weaker reporter binding; settings: Eterna round: R98
Protocol: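 RNA-MaP: designed FMN/MS2 RNA switches (84 nt design region) are transcribed on-chip within common flanks and titrated with SNAP-549-labelled MS2 coat protein (about 1-3000 nM) in 100 mM Tris pH 7.5, 80 mM KCl, 4 mM MgCl2, without or with 200 uM FMN. Median apparent KD per design; activation ratio = KD,OFF / KD,ON.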

[2] = system: MS2 coat protein; experiment: apparent KD of MS2 coat protein, switch ON state; designed switch direction (-1 OFF switch, 1 ON switch): 1; higher = weaker reporter binding; settings: FMN input: 0 or 200 uM; Eterna round: R93 (includes R88 designs)
How it was run: (§1)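 Each design's apparent KD comes from the median of binding-curve fits to its normalised clusters. Those clusters carried RNA switches transcribed on-chip from Illumina sequencing clusters. SNAP-549-labelled MS2 coat protein was titrated onto them in twofold steps (0.7 or 1.5 nM to 3 µM; per step 0.8–1.5 h down to 10–20 min). Conditions were 100 mM Tris-HCl pH 7.5, 80 mM KCl, 4 mM MgCl2, without or with constant ligand.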

[3] = system: MS2 coat protein; experiment: apparent KD of MS2 coat protein, switch OFF state (with FMN for OFF switches, without FMN for ON switches); designed switch direction (-1 OFF switch, 1 ON switch): 1; higher = weaker reporter binding; settings: FMN input: 0 or 200 uM; Eterna round: R93 (includes R88 designs)
How it was run: as §1

Sequence | apparent KD of MS2 coat protein ([1]; input ligand: FMN 200 uM) [nM] | apparent KD of MS2 coat protein ([1]; input ligand: none) [nM] | apparent KD of MS2 coat protein [2] [nM] | apparent KD of MS2 coat protein [3] [nM]
UCCGAUGUACAUGAGGAUCACCCAUGUCAUAUGCCCGUGACACAGGAUAUCCAGGGUAGGCCAAAGGAGAAGGGUGAUCCGCGG [Lelete] | 122 | 51.8 | – | –
GGUCCAACAUGAGGAUAUGGCACCUUAUUGGUGCCAGAAGGCGUGUCGAUAGACAUGAGGAUCACCCAUGUAAUAAAUUGGACC [SameState #23 NG1] | 138 | 467 | – | –
UGGAGGAAGAGAGAGGAUAUCCAAAGGAAAACAUGAGGAUCACCCAUGUAAAAGGUAGGAAAUUGGGAGAAGGCUCAAGAGAGAG [salish99-ss2-059] | – | – | 37.2 | 63.7
AGAAAUAAAAGGCAGGAUAUCCAAAAGAAAACAUGAGGAUCACCCAUGUAAAAGAAAAUAAAAUGGGAGAAGGGCCAAAAUAAAG [Fisker 73] | – | – | 13.1 | 42.3
GAGAAACAUGAGGAUCACCCAUGUAGAAAUAUGGGAGGAUAUACAAAGACGAAAGUCAAAGUAGAAGGCCUAAAAG [77%, Mat - Mod of Eli - With 1 more G's] | – | – | 26 | 55.9
AGGAAACAUGAGGAUCACCCAUGUAUAAAAAUGGGAGGAUAUACUAAGACGAAAGUCAUAGUAGAAGGCCUAAAAA [76%, Meechl, 8] | – | – | 24.3 | 52.6
GAGCCGCGGGCACAGGAUAUGCUCGGGCAAACAUGAGGAUCACCCAUGUGCGGCCUAAAUACGACGCAGAAGGGUGCUUGUGUGU [Lausisan] | – | – | 36.5 | 102
CGGAAGGAGAGGGAGGAUAUCCAAAGGAAAACAUGAGGAUCACCCAUGUAGAAGGUAGGAAAUUGGGAGAAGGCUCAAGAGAGAG [salish99-ss2-131] | – | – | 32.3 | 24.4
CAGAUACAUGAGGAUCACCCAUGUUAGGUAGAACAAGGAUAUCUAGAUAGAUAAAAAUAUAGAGAAGGUGUAUAAC [JR_SS001_Sub207] | – | – | 19.8 | 24.2
AAAAAAGAUCGCGAGGAUAUCCGAGUGGUAACAUGAGGAUCACCCAUGUGAAGAAAGGAACAUGAGGAGAAGGCGCGAUCAAAAA [viburnum 5] | – | – | 10.9 | 18.7
AAAAAAAAAAGUCAGGAUAUGCAGGGCGGGACAUGAGGAUCACCCAUGUGGCGGAAAAAAAAAAAGCAGAAGGGACGAAUAAAAAA [William Edwards Deming] | – | – | 23.1 | 42.8
GGGAGUAACAGAGAGGAUAUCCAAAGGAAAACAUGAGGAUCACCCAUGUAAAAGGAAGGAAAUUGGGAGAAGGCUCAAAAUAGAA [salish99-ss2-021] | – | – | 13.9 | 27
CGCAAACAUGAGGAUCACCCAUGUCAUUGUGAUCAAGGAUAUGGGUUCCGAAGUGGAACACCAGAAGGUGAGUAGU [Sozaer] | – | – | 224 | 497
AAAAGACAUGAGGAUCACCCAUGUAGGCCAAAGCAAGGAUAUAGGCCACAGGGACGCGGACUAGAAGGUGCACGGC [Orerorge] | – | – | 25.2 | 60.2
AAAAAACAUGAGGAUCACCCAUGUGAGAACAUGGGAGGAUAUACGAGGACGAGAGUCAAGGUAGAAGGCCUAAGAA [Garnet 68] | – | – | 268 | 22.8
AUAAAACAUGAGGAUCACCCAUGUCAGAAAUGGCAAGGAUAUAGAAAAUAAAAAUAAAAACUAGAAGGUGCAAAAU [Meechl SS1 R2 m1] | – | – | 74.9 | 198
GAAAAACAUGAGGAUCACCCAUGUGUAAAUAUGGAAGGAUAUACGAAGACGUAAGUCAAAGUAGAAGGUCUAAAAG [Garnet 99] | – | – | 19.3 | 24.9
ACUAUACAUGAGGAUCACCCAUGUCAGGUGGGACUAGGAUAUCAUAAGCCAGAGUAAGAAUGAGAAGGAGUAGAAA [JR_SS001_Sub306] | – | – | 143 | 151
AAAAGACAUGAGGAUCACCCAUGUAGGCCAAAGCAAGGAUAUAGGCCACAGGGACGUGAACUAGAAGGUGCACGGC [Zainlebe] | – | – | 30.8 | 135
AAAAGACAUGAGGAUCACCCAUGUGAAAACGUAGGAGGAUAUGUAUGGAAACCAGACUGUACAGAAGGCCUUUGUC [SS1 - 75] | – | – | 23 | 23.3
AAGAAACAUGAGGAUCACCCAUGUGAAAGAAACACAGGAUAUGCGAAAAGAAACAAAGAAGCAGAAGGGUGAAGAA [Mat - Same State 1 - Tesla mod - 58] | – | – | 22.6 | 39.2
